What was measured:
[1] = molecular target: Nup82-Flag-TEV-ProtA (S. cerevisiae) (UniProt P40368); experiment: AUC + SEC
[2] = molecular target: Nup82 (of the Nup82–Nup159tail–Flag-Nsp1C complex) (S. cerevisiae) (UniProt P40368); experiment: SEC-MALS
Sequence of Nup82 (of the Nup82–Nup159tail–Flag-Nsp1C complex) (S. cerevisiae) (P40368 whole entry, one chain of several): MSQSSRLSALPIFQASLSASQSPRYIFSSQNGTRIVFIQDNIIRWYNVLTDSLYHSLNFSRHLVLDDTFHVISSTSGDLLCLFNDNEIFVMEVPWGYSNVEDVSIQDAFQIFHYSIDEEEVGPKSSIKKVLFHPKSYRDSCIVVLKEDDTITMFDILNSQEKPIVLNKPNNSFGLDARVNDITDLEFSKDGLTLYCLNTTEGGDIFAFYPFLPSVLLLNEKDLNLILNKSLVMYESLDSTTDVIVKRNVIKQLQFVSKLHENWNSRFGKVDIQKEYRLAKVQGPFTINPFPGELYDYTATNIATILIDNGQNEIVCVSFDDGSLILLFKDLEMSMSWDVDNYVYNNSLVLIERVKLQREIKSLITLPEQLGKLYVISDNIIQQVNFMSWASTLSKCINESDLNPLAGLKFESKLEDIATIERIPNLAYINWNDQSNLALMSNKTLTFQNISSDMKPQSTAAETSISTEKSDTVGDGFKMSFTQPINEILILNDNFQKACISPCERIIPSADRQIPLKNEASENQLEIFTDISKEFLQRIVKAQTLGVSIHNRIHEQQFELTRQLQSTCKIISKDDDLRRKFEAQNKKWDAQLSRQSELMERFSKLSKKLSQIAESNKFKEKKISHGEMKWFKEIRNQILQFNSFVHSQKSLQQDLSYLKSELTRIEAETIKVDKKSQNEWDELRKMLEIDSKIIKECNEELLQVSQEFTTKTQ

Sequence of Nup82-Flag-TEV-ProtA (P40368 whole entry): as the sequence (P40368 whole entry, one chain of several) above
Sequence of Nup159 tail (domain or fragment) (P40477 whole entry, the tested form may be a part): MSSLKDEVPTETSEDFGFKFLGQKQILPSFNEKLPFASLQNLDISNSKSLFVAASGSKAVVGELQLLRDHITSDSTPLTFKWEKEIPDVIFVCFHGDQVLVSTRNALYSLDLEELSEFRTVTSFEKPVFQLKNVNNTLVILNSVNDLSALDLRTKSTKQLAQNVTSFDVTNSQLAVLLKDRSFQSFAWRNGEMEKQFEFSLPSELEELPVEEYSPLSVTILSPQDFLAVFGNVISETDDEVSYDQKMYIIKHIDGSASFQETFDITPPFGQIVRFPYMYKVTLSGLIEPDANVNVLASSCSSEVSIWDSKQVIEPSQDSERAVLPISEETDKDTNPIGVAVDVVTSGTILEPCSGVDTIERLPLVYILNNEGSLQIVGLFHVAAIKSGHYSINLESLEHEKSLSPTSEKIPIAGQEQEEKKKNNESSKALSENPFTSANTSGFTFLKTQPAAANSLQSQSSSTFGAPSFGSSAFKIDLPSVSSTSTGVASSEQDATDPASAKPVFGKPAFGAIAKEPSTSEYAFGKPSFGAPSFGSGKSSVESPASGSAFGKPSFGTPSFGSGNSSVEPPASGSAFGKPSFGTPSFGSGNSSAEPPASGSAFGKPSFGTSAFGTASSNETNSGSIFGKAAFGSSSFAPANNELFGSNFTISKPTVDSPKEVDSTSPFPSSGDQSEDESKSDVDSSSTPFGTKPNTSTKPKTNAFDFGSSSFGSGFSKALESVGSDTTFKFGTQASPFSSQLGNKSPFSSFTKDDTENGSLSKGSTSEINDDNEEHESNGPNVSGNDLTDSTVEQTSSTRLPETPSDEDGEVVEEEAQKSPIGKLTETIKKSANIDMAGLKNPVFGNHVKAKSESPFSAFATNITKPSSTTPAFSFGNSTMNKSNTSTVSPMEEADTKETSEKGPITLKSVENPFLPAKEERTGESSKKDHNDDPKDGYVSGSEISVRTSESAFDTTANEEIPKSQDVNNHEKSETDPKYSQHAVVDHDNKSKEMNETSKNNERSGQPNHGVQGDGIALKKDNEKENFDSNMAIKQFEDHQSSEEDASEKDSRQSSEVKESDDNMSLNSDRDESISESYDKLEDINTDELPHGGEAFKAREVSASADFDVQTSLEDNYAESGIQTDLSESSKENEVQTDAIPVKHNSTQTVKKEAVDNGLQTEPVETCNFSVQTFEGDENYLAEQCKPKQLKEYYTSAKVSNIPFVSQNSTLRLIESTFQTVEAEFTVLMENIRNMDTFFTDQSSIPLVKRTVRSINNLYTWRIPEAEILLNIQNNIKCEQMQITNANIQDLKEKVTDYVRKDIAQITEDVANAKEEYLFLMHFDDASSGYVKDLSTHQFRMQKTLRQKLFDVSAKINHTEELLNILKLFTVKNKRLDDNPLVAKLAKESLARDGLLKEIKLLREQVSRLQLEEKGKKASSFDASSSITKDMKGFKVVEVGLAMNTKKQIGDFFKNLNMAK

| stoichiometry N [2] | Substance | stoichiometry N [1] |
| --- | --- | --- |
| – | Nup82-Flag-TEV-ProtA (from UniProt P40368 1-713) (natural protein; other documents disagree on this pair) | 2 |
| 1 | Nup159 tail (domain or fragment) | – |

Source: article PMC4315244
